Experimental data from the DeepSol protein solubility set.

assay: soluble on expression in E. coli; label from the status in PepcDB or PDB records

Sequence | soluble on expression in E. coli
GAAAAMSICPHIQQVFQNEKSKDGVLKTCNAARYILNHSVPKEKFLNTMKCGTCHEINSGATFMCLQCGFCGCWNHSHFLSHSKQIGHIFGINSNNGLLFCFKCEDYIGNIDLINDAILAKYWDDVCTKTMVPSMERRDGLSGLINMGSTCFMSSILQCLIHNPYFIRHSMSQIHSNNCKVRSPDKCFSCALDKIVHELYGALNTKQASSSSTSTNRQTGFIYLLTCAWKINQNLAGYSQQDAHEFWQFIINQIHQSYVLDLPNAKEVSRANNKQCECIVHTVFEGSLESSIVCPGCQNNSKTTIDPFLDLSLDIKDKKKLYECLDSFHKKEQLKDFNYHCGECNSTQDAIKQLGIHKLPSVLVLQLKRFEHLLNGSNRKLDDFIEFPTYLNMKNYCSTKEKDKHSENGKVPDIIYELIGIVSHKGTVNEGHYIAFCKISGGQWFKFNDSMVSSISQEEVLKEQAYLLFYTIRQVN | soluble
SLSAALRTLKHVLYYSRQCLMVSRNLGSVGYDPNEKTFDKILVANRGEIACRVIRTCKKMGIKTVAIHSDVDASSVHVKMADEAVCVGPAPTSKSYLNMDAIMEAIKKTRAQAVHPGYGFLSENKEFARCLAAEDVVFIGPDTHAIQAMGDKIESKLLAKKAEVNTIPGFDGVVKDAEEAVRIAREIGYPVMIKASAGGGGKGMRIAWDDEETRDGFRLSSQEAASSFGDDRLLIEKFIDNPRHIEIQVLGDKHGNALWLNERECSIQRRNQKVVEEAPSIFLDAETRRAMGEQAVALARAVKYSSAGTVEFLVDSKKNFYFLEMNTRLQVEHPVTECITGLDLVQEMIRVAKGYPLRHKQADIRINGWAVECRVYAEDPYKSFGLPSIGRLSQYQEPLHLPGVRVDSGIQPGSDISIYYDPMISKLITYGSDRTEALKRMADALDNYVIRGVTHNIALLREVIINSRFVKGDISTKFLSDVYPDGFKGHMLTKSEKNQLLAIASSLFVAFQLRAQHFQENSRMPVIKPDIANWELSVKLHDKVHTVVASNNGSVFSVEVDGSKLNVTSTWNLASPLLSVSVDGTQRTVQCLSREAGGNMSIQFLGTVYKVNILTRLAAELNKFMLEKVTEDTSSVLRSPMPGVVVAVSVKPGDAVAEGQEICVIEAMKMQNSMTAGKTGTVKSVHCQAGDTVGEGDLLVELE | soluble
MKIGVDAGGTLIKIVQEKNGERTYSTRLTTEIEEVIQWLNQQDCNNINLTGGQAAMINEQLNCESRVFVEFDAAAKGLEILLEEQGHFLDDYIFTNVGTGTSLHFSNGKAQKRVGGIGTGGGMIQGLGYLLTGISNYKQLTDTAQNGNRDIIDLKVKHIYKDSEPPISGDLTAANFGNVLHHLDESFTDADKLASVIAVVGEVITTMSITVAREHNTKNVAYIGSSFHNNDLLKDVVKDYTVLRGCEPYYIEHGAFSGALGSIHLLEHHHHHH | not soluble
MYLPDDSPAKRLLFQMVGNAINRNTQQLTQDLRAMPNWSLRFVYIVDRNNQDLLKRPLPPGIMVLAPRLTAKHPYDKVQDRNRKLYGRHITLNDGNSVKVVTISAGRDEGPDRDIIWEMFLENLEHHHHHH | soluble
MSSGYSSLEEDEDFFFTARTSFFRRAPPGKSRSGQPDVEKEKETHNYLSKEEIKEKVHKYNSAVTDKLKMTLNSNGIYTGFIKVQMELCKPAQPSPEPSSGGCMNTLHISSTNTVGEVIEALLRKFLVTESPTKFALYKRCHREDQVYACKLSDREHPLYLRLVAGPRTDTLSFVLREHEIGEWEAFSLPELQNFLRILDKEEDEQLQSLKRRYTAYRQKLEEALGEVWKPG | not soluble
TDKPRHRFFDAETEALYARLARALPGYDFALQGWNRDEDTFIVAAYNDRTPGSRYLYDARRDSLHKLADINPAIPEADMAPVRPVSYQSRDGLTIHGYLTLPAGRAPRNLACIVNPHGGPWARDGWGYNPEVQFLANRGFCVLQMNFRGSTGYGRKFWEAGFGQWGLKMQDDITDGVQWLIDQGIADPRRIGIYGGSYGGYATLAGVAFTPDLYAAAVDYVGVSNLFTFMNTIPPYWKPLLAKMQDMVGDPVRDKARLEATSPALHVDRIKTPLFIAQGAKDPRVNKAESDQVVQALRQRGVEVEYMVKDNEGHGFHNDENKFEFYAAMEKFFTEHLK | not soluble
MGSDKIHHHHHHFEEVNTDPDSPTDVPTTNLLAYSLYYTSYRLYDRWFAMDEPMTFCGYASKMTYIDESRYNFRTGVQDTNWEYLYRILNNLKDIEKRATFNETPNMLNVSKVMQVHLMQVATDRWRDVPYTDAAKMTDGILQPKYDKQEDIYPGLLATLKEAADGFADGGSDDLGEGDLLFGGDIEKWQRYCNSMRLRLAMRISEVSPALAKETVEEVMGNPTKYPIMESNDDNAFFWWIGTDPNYYEPMADGYRTRKTEYCAADVIVDHMNTREDPRRSSYFQPTKESVEAGEPKYVGYTIGAKANAVASKYSIWGARFFTDLAGFSPYMRVAEPWFCVAEASMLGWNTGISAEDAYNKAVTYSMEENSVSAEDIADYLANAGKFTNDKKQIYYEEWVAMFKQGMEGWSLYRRTGVPDNLYPAPGRPANYSNHNVPPFRSPYPDKERNLNNANCAPFDAEVVDNLWGKQMWWDTRTGVH | not soluble
MRDEEPVRRLETIVEEERRVVVQGYVFDAEVSELKSGRTLLTMKITDYTNSILVKMFSRDKEDAELMSGVKKGMWVKVRGSVQNDTFVRDLVIIANDLNEIAANERQDTAPEGEKRVELHLHTPMSQMDAVTSVTKLIEQAKKWGHPAIAVTDHAVVQSFPEAYSAAKKHGMKVIYGLEANIVDDGVPIAYNETHRRLGSGSGPFHVTLLAQNETGLKNLFKLVSLSHIQYFHRVPRIPRSVLVKHRDGLLVGSGCDKGELFDNLIQKAPEEVEDIARFYDFLEVHPPDVYKPLIEMDYVKDEEMIKNIIRSIVALGEKLDIPVVATGNVHYLNPEDKIYRKILIHSQGGANPLNRHELPDVYFRTTNEMLDCFSFLGPEKAKEIVVDNTQKIASLIGDVKPIKDELYTPRIEGADEEIREMSYRRAKEIYGDPLPKLVEERLEKELKSIIGHGFAVIYLISHKLVKKSLDDGYLVGSRGSVGSSFVATMTEITEVNPLPPHYVCPNCKHSEFFNDGSVGSGFDLPDKNCPRCGTKYKKDGHDIPFETFLGFKGDKVPDIDLNFSGEYQPRAHNYTKVLFGEDNVYRAGTIGTVADKTAYGFVKAYASDHNLELRGAEIDRLAAGCTGVKRTTGQHPGGIIVVPDYMEIYDFTPIQYPADDTSSEWRTTHFDFHSIHDNLLKLDILGHDDPTVIRMLQDLSGIDPKTIPTDDPDVMGIFSSTEPLGVTPEQIMCNVGTIGIPEFGTRFVRQMLEETRPKTFSELVQISGLSHGTDVWLGNAQELIQNGTCTLSEVIGCRDDIMVYLIYRGLEPSLAFKIMESVRKGKGLTPEFEAEMRKHDVPEWYIDSCKKIKYMFPKAHAAAYVLMAVRIAYFKVHHPLLYYASYFTVRAEDFDLDAMIKGSAAIRKRIEEINAKGIQATAKEKSLLTVLEVALEMCERGFSFKNIDLYRSQATEFVIDGNSLIPPFNAIPGLGTNVAQAIVRAREEGEFLSKEDLQQRGKLSKTLLEYLESRGCLDSLPDHNQLSLFSGGHHHHHHHH | soluble
MSGGGIIPRGGGYSKRRGRGRRGGGNGGFRDDIRDNQSDRHLSPDRRSNHSEDRHEHRFNNYRQQNRPNSRTPSPSNHNQVQTYRNNPFDARPALSSNDRDQGRNRFSPPSFRRDGRDSDRNGYHEKEEEPTRGSRNDLRTILKPTDKEAARTWKLRIADAEEAIRRAEFQLRRAKMDHEALLEAYKEYTETTCPQELLKPNW | not soluble
MAHHHHHHMTFEFGEECNNLARAAHQTKNYGDAISLYDRALTMRREKYGPIHKKCAATLHNIGRVFIDMKEYGAAENAFTEAAAIYEQVEGDKSLEYAESLELLALCYTHLKFLDEAEKAFKDSIRIFRDQCYNYGNNSWLPDDKTPPAEPNKHPLSSAAHALADCAALFLFRRQEHQAVAFLEEALEIRRFLYSRHVKFRPMIAQTLNKLCELKKSLDDAVGAEMCINECLEICIETLGRDHPATAQATSSKAGLLAAKKQFRDALRLYEESTRTYAMALGKDAPLFGQELMKLGRCQELCNDVVNAEKTFRRGVEIITNGFGPNSLQLAEANTFYGSLLARRLDIDQAVGMFRDAIRIRKSVDKHDPQLAYLYQKIGDAYAMRREPHAEAYFLLAVDAFKQNATIEPLQRTYMTDVLDDLGLFYLDFQHYEKAEKCFKEALDTRIEMLGENHATVAYSYSNFALLYLQRQDYANCEKMAEAALDIYSKTARSNVLAQADVHTTLGQCYHQQNQFAKALEMHEKALNVRRTRGDTTETAVAESLNQIARVYITMKRYGKAYRHVKEARRLVWQFNVEITQPLRNEIVKTEQMIPPMEEWTNEERAEAQVMIGDGSSAGNGSAATTATGA | not soluble
AIYHLTAKTGSRSGGQSARAKADYIQREGKYARDMDEVLHAESGHMPEFVERPADYWDAADLYERANGRLFKEVEFALPVELTLDQQKALASEFAQHLTGAERLPYTLAIHAGGGENPHCHLMISERINDGIERPAAQWFKRYNGKTPEKGGAQKTEALKPKAWLEQTREAWADHANRALERAGH | soluble
SAKGGKGPKGKKITLNVAKNCIKITFDGRKRLDLSKMGITTFPKCILRLSDIDELDLSRNMIRKIPDSIAKFQNLRWLDLHSNYIDKLPESIGQMTSLLFLNVSNNRLTTNGLPVELNQLKNIRTVNLGLNHLDSVPTTLGALKELHEVGLHDNLLTTIPASIAKLPKLKKLNIKRNPFPNADESEMFVDSIKRLENLYLVEEKDMCSSCLQRCQQARDKLNKIKSMAPSAPRKALFSNLVSPNSTAKDAQEEWR | soluble
MQAHQSLHPSSAYLLDPRDTHHFIRKPTISMETTTEIPAGGATSLLPIVRAAKTPPIPLTVPCAIAGVMMEFECLLRGKRMLVNAMVYNVKTTIAGHPWE | not soluble
MGSDKIHHHHHHMGYAMRLALIDGEHYPDVNRWALEKLKVDCAVFVGGMEKIGSIRDVERTLSIKLYYDEDIFKALERAIEENEIREVIDLSDEPVLTPEIRFRIASFLLKRGITYIGADFEFKPKEWIKIDVPSINIIGTGKRIGKTAIGGFVGRTLKEEYKVVIVTMGRGGPESPEVIRGDLMEITPEFLVEVSEKGRHAASDHFEDALTAGVATVGCRRCGGGLAGFTFLDVLQKGIEVAKSLNPEIIVFEGSGASFANVLSEGFITVVSALQGKEIKMYLYPLRISLGDLIVVTMADEVKDPGKISSLIKEINPDADIHLTRFSPRLIGNVEGKAVVVTTSTNSAKRVTKELEDRGIDVVGFSGNLANRVKLREELKKVSYDTLIVELKAGAVDVAIKSALRSGKRIVFLDYEPKNIDDKDLRESVKELARRIVNDKGHRKGR | not soluble
MTTAVQPSDTTGFGGGPAGSRASDLIQFQEIMSESAESSSSSSQTNVSAANTLPRESNGQNYADDPSHVYTNIREIEELNSRPVPPTPRADAQPRRDLLNGWFEYETDVGRTFFFNKETGKSQWIPPRFIRTPAQVQEFLRATRTNLDTTCSFQGSSTSSSEEQKENKMRESLADDDRKSQLIEDEEVFDEVCDDVDEQSSPVIDLQSRPLPIPFSDSFTDDEDEDDVKPIEGSIASDSDFDEEPVPTSSRKASTASGVMMPHPYAHVSSFQSTFPRAKNEDTDKLASYVIPPDANETSKTPTAIRVRRPSPTNLRSVSFQNKCTVLKNVPMPQVLPTTSSSFDHHPQYHSNTPDRPILMEDSADFTPSSRCEERRGSGDGREPVRTIRCGDLERSENDEPAEKVVKPKKREWITNYMYLTTAHLILYKDQKSAEKHGKHYDAPQGVWDLRGASVTWYQDNRDVQKKKQRKYIQLELCNTKKYLLRGPNDTEAVEWYKSLEEVVAKLPSPGSSNQPMIDVTNGVARNPSYIGSTRPLSHALIPISRSMRRRDDPMSQSAIETVSTSVSTDEPRPSKETIIEKLRRFFRTRPTVESLKEKGIYKPEPVFGSTLSAICQHENSLVPKFIRVITEVIESKGLETDGIYRVSGNLSAVQKIRCQADQDNYKALVSEEDIHVLTGALKLFFRELTDPLFPISLHKEYTSAMQMPNATTRFKKFEELLSRLPNENRETLKMLLRHLNRVASHSSQNRMQQHNLAIVFGPTLFHNGDGAVNLATKNKKAGKKAKPSKKEETQATPVQSNSHLAFSMIMQSQIVQYLLESANKFDILKAPVNIGR | not soluble
